Assay results from publication PMC3811051 (Nature methods, 2013).

Target: the molecule itself
Experiment: SEC

B1: LanYFP, yellow fluorescent protein from Branchiostoma lanceolatum (natural protein, UniProt B1PNC0 1-219, looked up)
chain: MSLPATHELHIFGSFNGVDFDMVGRGTGNPNDGYEELNLKSTKGALQFSPWILVPQIGYGFHQYLPFPDGMSPFQAAMKDGSGYQVHRTMQFEDGASLTSNYRYTYEGSHIKGEFQVIGTGFPADGPVMTNSLTAADWCVTKMLYPNDKTIISTFDWTYTTGSGKRYQSTVRTNYTFAKPMAANILKNQPMFVFRKTELKHSKTELNFKEWQKAFTDVM
  stoichiometry N: 4
